These results are taken from article PMC12279188.

This assay addresses KSHV gB653-mut ectodomain (Kaposi's sarcoma-associated herpesvirus (KSHV), strain GK18) (UniProt F5HB81). Kind of assay: cryo-EM structure.

In general, stoichiometry N refers to the number of molecules, sites or subunits per partner or assembly. As to “KSHV gB653-mut ectodomain (from UniProt F5HB81 27-653) (domain or fragment)”, the stoichiometry N stood at 3.
